Tests used:
[1] = target: AtNFS1-His6 (cysteine desulfurase AtNFS1 from Arabidopsis thaliana, mature form, His6-tagged) (Arabidopsis thaliana) (UniProt O49543)
[2] = target: AtNFS1-His6 (cysteine desulfurase AtNFS1 from Arabidopsis thaliana, mature form, His6-tagged) (Arabidopsis thaliana) (UniProt O49543); remark: listed apart in the source
AtNFS1 alone = target: T1, AtNFS1 alone (Arabidopsis thaliana, UniProt O49543); test: L-alanine production, ninhydrin colorimetric assay at […] nm; format: biochemical; details: no AtFH or AtISD11, 25 mM Tris-HCl pH 8, 100 mM NaCl, 10 uM PLP, 100 uM DTT, 37 °C, low activity
T1 construct: gene NIFS1; mature form, pET32a with His6 tag and TEV site, codon-optimised, E. coli expression; about 48 kDa with His6
T1 sequence (O49543 35-453): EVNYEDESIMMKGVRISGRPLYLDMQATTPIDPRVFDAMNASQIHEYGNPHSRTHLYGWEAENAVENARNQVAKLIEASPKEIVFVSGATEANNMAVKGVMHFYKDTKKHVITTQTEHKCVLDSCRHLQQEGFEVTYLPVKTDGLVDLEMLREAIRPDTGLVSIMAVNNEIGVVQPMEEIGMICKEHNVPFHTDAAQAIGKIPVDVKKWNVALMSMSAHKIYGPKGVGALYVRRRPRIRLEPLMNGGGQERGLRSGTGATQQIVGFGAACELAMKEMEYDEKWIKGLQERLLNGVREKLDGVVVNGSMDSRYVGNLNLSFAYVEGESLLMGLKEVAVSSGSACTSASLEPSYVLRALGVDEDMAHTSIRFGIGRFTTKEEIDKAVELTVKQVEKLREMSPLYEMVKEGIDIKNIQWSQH

cysteine desulfurase activity of AtNFS1 in the presence of AtFH and AtISD11 (1:1:1 molar ratio), Vmax [1] [U/mg]	attenuation of the Fenton reaction (decrease in malondialdehyde produced from dRibose, Fe(II) and H2O2) with AtFH, AtNFS1 and AtISD11 together (30 uM each); AtFH alone about 40% [2] [%]	Compound	L-alanine production, ninhydrin colorimetric assay at 565 nm (AtNFS1 alone)
47.8	80	AtFH (frataxin from Arabidopsis thaliana, mature form, without His6 tag) (natural protein)	–
–	–	N[C@@H](CS)C(=O)O [L-cysteine]	in the presence of its substrates, AtNFS1 alone shows low cysteine desulfurase activity

From article PMC7570111, “Iron-Sulfur Cluster Complex Assembly in the Mitochondria of Arabidopsis thaliana” (Plants, 2020)
